Residue numbers refer to the chain shown, from its start.
B1: humanized antibody No. 90 (antibody, human IgG1, kappa)
heavy: QVQLVQSGSELKKPGASVKVSCKASGYTFTDYSMHWVRQAPGQGLEWMGWINTETGEPTYADDFKGRFVFSLDTSVSTAYLQISSLKAEDTAVYYCARIPLYYYGSRYWYFDVWGQGTTVTVSSASTKGPSVFPLAPSSKSTSGGTAALGCLVKDYFPEPVTVSWNSGALTSGVHTFPAVLQSSGLYSLSSVVTVPSSSLGTQTYICNVNHKPSNTKVDKRVEPKSCDKTHTCPPCPAPPAAAPSVFLFPPKPKDTLMISRTPEVTCVVVDVSHEDPEVQFNWYVDGVEVHNAKTKPREEQFNSTFRVVSVLTVVHQDWLNGKEYKCKVSNKGLPAPIEKTISKTKGQPREPQVYTLPPSREEMTKNQVSLTCLVKGFYPSDIAVEWESNGQPENNYKTTPPMLDSDGSFFLYSKLTVDKSRWQQGNVFSCSVMHEALHNHYTQKSLSLSPG
light: DIQMTQSPSSLSASVGDRVTITCRASENIYRNLAWYQQKPGKAPQLLLYAATNLADGVPSRFSGSGSGTDYTLTISSLQPEDFATYYCQHFWGTPWTFGQGTKVEIKRTVAAPSVFIFPPSDEQLKSGTASVVCLLNNFYPREAKVQWKVDNALQSGNSQESVTEQDSKDSTYSLSSTLTLSKADYEKHKVYACEVTHQGLSSPVTKSFNRGEC
notes: human Ig kappa; also called L1-6/HK1
B2: humanized antibody No. 140 (antibody, human IgG2)
heavy: QVQLVQSGSELKKPGASVKVSCKASGYTFTDYSMHWVRQAPGQGLKWMGWINTETGEPTYAQGFTGRFVFSLDTSVSTAYLQISSLKAEDTAVYYCARIPLYYYGSRYWYFDVWGQGTTVTVSSASTKGPSVFPLAPSSRSTSESTAALGCLVKDYFPEPVTVSWNSGALTSGVHTFPAVLQSSGLYSLSSVVTVPSSNFGTQTYTCNVDHKPSNTKVDKTVERKSCVECPPCPAPPAAAPSVFLFPPKPKDTLMISRTPEVTCVVVDVSHEDPEVQFNWYVDGVEVHNAKTKPREEQFNSTFRVVSVLTVVHQDWLNGKEYKCKVSNKGLPAPIEKTISKTKGQPREPQVYTLPPSREEMTKNQVSLTCLVKGFYPSDIAVEWESNGQPENNYKTTPPMLDSDGSFFLYSKLTVDKSRWQQGNVFSCSVMHEALHNHYTQKSLSLSPG
light: B1 light with Q45K, L48V
notes: human Ig kappa; also called L1-4/HA2
B3: humanized antibody No. 141 (antibody, human IgG2)
heavy: B2 heavy with K46E, Q62D, G63D, T65K
light: B1 light with Q45K, L48V
notes: human Ig kappa; also called L1-4/HK1
B4: humanized antibody No. 151 (antibody, human IgG2)
heavy: B2 heavy with V2I
light: B1 light with Q45K, P80S
notes: human Ig kappa; also called L1-5/HA4
B5: humanized antibody No. 152 (antibody, human IgG2)
heavy: B2 heavy with K46E
light: B1 light with Q45K, P80S
notes: human Ig kappa; also called L1-5/HA1
B6: humanized antibody No. 138 (antibody, human IgG2)
heavy: B2 heavy with V2I
light: B1 light with Q45K, L48V
notes: human Ig kappa; also called L1-4/HA4
B7: humanized antibody No. 91 (antibody, human IgG1, kappa)
heavy: B1 heavy with E46K
light: B1 light
notes: human Ig kappa; also called L1-6/HK2
B8: humanized antibody No. 143 (antibody, human IgG2)
heavy: B2 heavy with V2I, Q62D, G63D, T65K
light: B1 light with Q45K, L48V
notes: human Ig kappa; also called L1-4/HK4
B9: humanized antibody No. 144 (antibody, human IgG2)
heavy: B2 heavy with K46E, Q62D, G63D, T65K
light: B1 light
notes: as for B1
B10: humanized antibody No. 92 (antibody, human IgG1, kappa)
heavy: B1 heavy with V2I, E46K
light: B1 light
notes: human Ig kappa; also called L1-6/HK4
B11: humanized antibody No. 145 (antibody, human IgG2)
heavy: B2 heavy with Q62D, G63D, T65K
light: B1 light with Q45K, P80S
notes: human Ig kappa; also called L1-5/HK2
B12: humanized antibody No. 153 (antibody, human IgG2)
heavy: B2 heavy
light: B1 light with Q45K, P80S
notes: human Ig kappa; also called L1-5/HA2
B13: humanized antibody No. 142 (antibody, human IgG2)
heavy: B2 heavy with Q62D, G63D, T65K
light: B1 light with Q45K, L48V
notes: human Ig kappa; also called L1-4/HK2
B14: humanized antibody No. 139 (antibody, human IgG2)
heavy: B2 heavy with K46E
light: B1 light with Q45K, L48V
notes: human Ig kappa; also called L1-4/HA1

Columns and labels:
Test in all cases: ELISA
[1] = target: T1, human EphB4 extracellular region-SEAP-His protein (human, UniProt P54760 16-539)
T1 construct: extracellular domain; also called hEphB4-SEAP-His
T1 sequence (looked up): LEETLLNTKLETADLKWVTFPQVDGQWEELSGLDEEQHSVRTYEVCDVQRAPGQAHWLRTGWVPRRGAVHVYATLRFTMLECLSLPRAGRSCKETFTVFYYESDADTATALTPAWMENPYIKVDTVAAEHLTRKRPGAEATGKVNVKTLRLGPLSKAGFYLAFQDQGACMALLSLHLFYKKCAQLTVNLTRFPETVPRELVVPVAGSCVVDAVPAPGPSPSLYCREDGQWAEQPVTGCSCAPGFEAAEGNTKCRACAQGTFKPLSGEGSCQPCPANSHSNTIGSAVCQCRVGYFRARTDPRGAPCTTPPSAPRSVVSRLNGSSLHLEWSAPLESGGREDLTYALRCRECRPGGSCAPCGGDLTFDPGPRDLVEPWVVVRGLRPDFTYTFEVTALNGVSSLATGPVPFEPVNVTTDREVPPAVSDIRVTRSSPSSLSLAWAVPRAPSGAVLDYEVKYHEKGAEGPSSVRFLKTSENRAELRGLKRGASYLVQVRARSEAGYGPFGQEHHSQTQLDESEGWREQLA

SEAP-His = SEAP-His (UniProt P05187 23-511)
[2] = target: T2, human EphA3 extracellular region-SEAP-His protein (human, UniProt P29320 21-541)
T2 construct: extracellular domain; also called hEphA3-SEAP-His
T2 sequence (looked up): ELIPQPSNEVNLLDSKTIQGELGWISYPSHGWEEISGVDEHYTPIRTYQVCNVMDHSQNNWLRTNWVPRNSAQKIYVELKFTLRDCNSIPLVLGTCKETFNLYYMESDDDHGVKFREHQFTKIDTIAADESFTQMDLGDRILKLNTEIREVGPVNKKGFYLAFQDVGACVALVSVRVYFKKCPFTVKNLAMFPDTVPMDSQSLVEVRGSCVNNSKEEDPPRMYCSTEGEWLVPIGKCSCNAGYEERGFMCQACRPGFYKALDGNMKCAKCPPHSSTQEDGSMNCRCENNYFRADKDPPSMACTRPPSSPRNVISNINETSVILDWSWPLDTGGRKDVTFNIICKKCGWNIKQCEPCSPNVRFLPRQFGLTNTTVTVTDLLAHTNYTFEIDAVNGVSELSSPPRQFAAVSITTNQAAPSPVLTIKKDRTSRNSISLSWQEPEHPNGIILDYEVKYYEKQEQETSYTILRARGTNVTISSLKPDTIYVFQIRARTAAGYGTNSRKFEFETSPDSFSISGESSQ

[3] = target: T3, human EphA10 extracellular region-SEAP-His protein (human, UniProt Q5JZY3 34-565)
T3 construct: extracellular domain; also called hEphA10-SEAP-His
T3 sequence (looked up): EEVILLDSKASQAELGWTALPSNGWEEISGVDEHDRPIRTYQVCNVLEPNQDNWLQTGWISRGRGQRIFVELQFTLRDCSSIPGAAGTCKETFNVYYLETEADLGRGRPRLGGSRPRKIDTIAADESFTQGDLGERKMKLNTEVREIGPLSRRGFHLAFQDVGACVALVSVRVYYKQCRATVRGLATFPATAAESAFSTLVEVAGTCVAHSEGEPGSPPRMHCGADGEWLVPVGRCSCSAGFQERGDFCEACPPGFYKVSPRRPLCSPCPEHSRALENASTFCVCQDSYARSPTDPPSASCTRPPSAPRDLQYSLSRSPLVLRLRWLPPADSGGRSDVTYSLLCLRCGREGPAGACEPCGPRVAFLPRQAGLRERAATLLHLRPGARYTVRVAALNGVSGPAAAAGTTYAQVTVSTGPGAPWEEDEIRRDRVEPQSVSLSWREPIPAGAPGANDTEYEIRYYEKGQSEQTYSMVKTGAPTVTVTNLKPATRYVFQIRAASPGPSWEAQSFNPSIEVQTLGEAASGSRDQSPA

[4] = target: T4, human EphB3 extracellular region-SEAP-His protein (human, UniProt P54753 34-559)
T4 construct: extracellular domain; also called hEphB3-SEAP-His
T4 sequence (looked up): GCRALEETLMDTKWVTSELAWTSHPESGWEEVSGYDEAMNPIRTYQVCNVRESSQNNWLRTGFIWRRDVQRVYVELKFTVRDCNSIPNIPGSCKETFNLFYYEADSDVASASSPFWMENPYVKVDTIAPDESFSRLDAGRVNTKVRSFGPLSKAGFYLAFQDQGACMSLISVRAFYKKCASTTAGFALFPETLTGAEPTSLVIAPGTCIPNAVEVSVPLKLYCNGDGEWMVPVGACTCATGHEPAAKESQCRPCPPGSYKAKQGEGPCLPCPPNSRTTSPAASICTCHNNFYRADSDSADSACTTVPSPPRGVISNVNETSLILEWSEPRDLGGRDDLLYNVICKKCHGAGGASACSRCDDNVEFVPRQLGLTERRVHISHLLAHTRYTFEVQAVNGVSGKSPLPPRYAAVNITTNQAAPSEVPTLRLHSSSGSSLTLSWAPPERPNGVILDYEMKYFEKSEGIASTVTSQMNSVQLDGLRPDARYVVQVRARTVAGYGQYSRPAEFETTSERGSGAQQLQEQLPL

SEAP-His, sequence (P05187 23-511): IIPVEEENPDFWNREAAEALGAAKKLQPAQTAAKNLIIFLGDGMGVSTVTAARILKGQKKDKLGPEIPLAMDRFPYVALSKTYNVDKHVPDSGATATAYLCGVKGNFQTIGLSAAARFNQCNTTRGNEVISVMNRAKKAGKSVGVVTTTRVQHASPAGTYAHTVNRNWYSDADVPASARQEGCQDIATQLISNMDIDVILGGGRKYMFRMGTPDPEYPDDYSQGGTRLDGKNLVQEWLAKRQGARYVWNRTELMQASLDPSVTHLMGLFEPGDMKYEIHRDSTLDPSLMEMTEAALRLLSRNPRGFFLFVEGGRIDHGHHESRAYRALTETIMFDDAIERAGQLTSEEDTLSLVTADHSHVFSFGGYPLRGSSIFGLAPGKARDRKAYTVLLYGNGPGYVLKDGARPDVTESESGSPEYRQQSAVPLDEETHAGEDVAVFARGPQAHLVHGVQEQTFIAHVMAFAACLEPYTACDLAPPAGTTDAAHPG

Binder	A450 as % of hEphA4-SEAP-His [1]	A450 as % of hEphA4-SEAP-His (SEAP-His)	A450 as % of hEphA4-SEAP-His [2]	A450 as % of hEphA4-SEAP-His [3]	A450 as % of hEphA4-SEAP-His [4]
B1	5%	5.2%	5.2%	5.1%	5.1%
B2	5.4%	5.4%	5.5%	5.2%	5.4%
B3	5.4%	5%	5.3%	5.2%	5.2%
B4	7.4%	6.8%	6.9%	6.6%	7.3%
B5	5.9%	5.4%	5.8%	5.8%	6%
B6	5.2%	5.1%	4.9%	5%	5.1%
B7	6.2%	6.4%	6.6%	8.5%	7%
B8	5.9%	6.3%	5.6%	5.2%	5.9%
B9	5.7%	5.7%	5.7%	5.7%	5.8%
B10	6.6%	6.5%	6.5%	6.6%	6.9%
B11	6.7%	6.4%	6.6%	6.5%	6.7%
B12	6%	5.9%	6.1%	6%	5.9%
B13	5.7%	5.8%	5.5%	5.4%	5.6%
B14	5.7%	5.7%	5.9%	5.5%	5.6%

Source: patent publication US20190077860A1 (EISAI R AND D MANAGEMENT, published 2019)
